Test results as given in patent US10087225B2, “Formulation of MK2 inhibitor peptides” (MOERAE MATRIX, INC., priority 2015, dated 2018).

Key:
Test in all cases: Kinase Profiling Assay
Format in all cases: biochemical
Details in all cases: for % activity: 100 μM
ULK2(h) = target: T1, ULK2(h) (Homo sapiens, UniProt Q8IYT8)
T1 sequence (Q8IYT8 1-1036): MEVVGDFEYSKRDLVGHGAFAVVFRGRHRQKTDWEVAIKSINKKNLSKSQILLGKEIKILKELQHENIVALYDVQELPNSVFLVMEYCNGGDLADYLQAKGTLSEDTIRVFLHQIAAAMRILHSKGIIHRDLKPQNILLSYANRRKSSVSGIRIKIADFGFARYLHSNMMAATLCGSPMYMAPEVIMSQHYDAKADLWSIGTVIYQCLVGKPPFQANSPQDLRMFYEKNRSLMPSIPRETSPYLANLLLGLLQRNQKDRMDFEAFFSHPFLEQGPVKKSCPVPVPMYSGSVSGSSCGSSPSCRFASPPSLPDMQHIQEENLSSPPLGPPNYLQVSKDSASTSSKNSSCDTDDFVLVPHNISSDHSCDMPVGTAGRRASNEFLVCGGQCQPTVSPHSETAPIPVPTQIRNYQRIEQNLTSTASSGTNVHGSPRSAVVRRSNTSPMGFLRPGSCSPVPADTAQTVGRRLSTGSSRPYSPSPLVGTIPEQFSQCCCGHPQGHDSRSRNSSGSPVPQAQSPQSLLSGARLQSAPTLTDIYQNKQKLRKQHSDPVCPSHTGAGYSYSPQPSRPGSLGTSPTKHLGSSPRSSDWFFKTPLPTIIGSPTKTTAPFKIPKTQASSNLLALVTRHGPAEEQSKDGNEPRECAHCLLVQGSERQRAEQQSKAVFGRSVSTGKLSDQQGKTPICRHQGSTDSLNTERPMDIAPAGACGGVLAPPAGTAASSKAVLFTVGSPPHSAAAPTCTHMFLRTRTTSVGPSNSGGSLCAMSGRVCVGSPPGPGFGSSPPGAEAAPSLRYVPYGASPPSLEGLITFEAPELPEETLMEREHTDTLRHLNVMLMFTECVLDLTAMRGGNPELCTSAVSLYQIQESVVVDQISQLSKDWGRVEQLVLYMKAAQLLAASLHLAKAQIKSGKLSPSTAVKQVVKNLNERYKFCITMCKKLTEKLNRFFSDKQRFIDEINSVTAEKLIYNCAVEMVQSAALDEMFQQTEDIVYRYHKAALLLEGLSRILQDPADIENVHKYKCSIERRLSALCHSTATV

PRK2(h) = PRK2(h) (Homo sapiens, UniProt Q16513)
Sequence of PRK2(h) (Q16513 whole entry): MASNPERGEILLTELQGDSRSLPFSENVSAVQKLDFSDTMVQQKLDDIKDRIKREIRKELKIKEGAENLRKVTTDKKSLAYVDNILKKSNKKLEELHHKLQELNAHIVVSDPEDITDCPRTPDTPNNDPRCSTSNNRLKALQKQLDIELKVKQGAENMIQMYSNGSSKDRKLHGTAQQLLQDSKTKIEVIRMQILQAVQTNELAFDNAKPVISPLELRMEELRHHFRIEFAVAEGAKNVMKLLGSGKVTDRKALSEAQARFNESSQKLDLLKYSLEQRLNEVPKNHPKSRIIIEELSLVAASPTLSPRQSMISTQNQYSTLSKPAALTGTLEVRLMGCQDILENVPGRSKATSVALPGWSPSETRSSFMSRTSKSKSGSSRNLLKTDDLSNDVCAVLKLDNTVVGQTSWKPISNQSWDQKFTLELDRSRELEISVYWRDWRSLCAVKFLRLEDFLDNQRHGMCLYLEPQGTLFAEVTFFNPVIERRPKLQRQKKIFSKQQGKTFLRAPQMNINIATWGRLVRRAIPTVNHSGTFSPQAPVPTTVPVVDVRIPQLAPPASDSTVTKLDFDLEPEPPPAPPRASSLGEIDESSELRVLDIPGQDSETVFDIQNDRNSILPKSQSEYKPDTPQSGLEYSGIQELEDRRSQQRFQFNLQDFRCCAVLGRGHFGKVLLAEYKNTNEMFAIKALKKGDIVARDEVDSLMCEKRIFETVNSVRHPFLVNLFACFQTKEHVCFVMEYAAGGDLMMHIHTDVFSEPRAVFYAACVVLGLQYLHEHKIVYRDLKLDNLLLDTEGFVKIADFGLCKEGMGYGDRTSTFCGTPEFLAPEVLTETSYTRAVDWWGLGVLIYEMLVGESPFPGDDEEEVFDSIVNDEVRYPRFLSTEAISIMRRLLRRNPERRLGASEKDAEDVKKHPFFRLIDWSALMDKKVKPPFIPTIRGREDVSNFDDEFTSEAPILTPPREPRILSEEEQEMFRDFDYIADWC

ErbB4(h) = ErbB4(h) (Homo sapiens, UniProt Q15303)
Sequence of ErbB4(h) (Q15303 26-1308): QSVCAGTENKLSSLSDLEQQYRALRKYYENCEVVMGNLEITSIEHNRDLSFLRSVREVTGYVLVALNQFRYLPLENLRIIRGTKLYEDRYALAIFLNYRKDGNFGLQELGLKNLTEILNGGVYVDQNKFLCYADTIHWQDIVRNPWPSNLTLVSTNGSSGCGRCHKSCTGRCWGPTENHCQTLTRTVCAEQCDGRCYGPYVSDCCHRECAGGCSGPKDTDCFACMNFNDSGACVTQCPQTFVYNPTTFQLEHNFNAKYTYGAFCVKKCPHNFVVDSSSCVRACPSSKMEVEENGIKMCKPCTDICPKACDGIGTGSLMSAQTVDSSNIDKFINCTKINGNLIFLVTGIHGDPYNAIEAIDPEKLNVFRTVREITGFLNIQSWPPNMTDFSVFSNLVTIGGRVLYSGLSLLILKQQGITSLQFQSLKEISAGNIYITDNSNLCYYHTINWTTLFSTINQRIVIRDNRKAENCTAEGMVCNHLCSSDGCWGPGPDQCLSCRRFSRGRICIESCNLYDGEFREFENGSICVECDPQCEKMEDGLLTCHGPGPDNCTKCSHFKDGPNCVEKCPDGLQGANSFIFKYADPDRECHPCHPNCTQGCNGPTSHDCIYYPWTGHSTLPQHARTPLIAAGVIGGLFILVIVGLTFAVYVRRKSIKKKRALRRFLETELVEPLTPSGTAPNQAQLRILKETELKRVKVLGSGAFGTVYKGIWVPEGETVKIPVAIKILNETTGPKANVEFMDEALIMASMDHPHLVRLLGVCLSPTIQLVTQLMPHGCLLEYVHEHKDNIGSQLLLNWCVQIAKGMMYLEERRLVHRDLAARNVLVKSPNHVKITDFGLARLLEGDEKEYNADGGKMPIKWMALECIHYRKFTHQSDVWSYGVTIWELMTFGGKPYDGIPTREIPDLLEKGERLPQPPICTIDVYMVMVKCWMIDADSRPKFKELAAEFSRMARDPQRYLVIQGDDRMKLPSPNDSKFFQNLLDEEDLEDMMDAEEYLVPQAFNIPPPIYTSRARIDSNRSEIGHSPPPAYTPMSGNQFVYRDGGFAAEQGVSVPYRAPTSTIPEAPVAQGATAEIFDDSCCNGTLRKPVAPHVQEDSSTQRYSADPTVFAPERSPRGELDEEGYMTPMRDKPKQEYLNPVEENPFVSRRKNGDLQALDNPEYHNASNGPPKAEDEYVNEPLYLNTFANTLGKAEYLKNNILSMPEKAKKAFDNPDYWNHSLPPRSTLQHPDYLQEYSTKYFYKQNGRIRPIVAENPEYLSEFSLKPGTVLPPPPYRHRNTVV

STK33(h) = STK33(h) (Homo sapiens, UniProt Q9BYT3)
Sequence of STK33(h) (Q9BYT3 whole entry): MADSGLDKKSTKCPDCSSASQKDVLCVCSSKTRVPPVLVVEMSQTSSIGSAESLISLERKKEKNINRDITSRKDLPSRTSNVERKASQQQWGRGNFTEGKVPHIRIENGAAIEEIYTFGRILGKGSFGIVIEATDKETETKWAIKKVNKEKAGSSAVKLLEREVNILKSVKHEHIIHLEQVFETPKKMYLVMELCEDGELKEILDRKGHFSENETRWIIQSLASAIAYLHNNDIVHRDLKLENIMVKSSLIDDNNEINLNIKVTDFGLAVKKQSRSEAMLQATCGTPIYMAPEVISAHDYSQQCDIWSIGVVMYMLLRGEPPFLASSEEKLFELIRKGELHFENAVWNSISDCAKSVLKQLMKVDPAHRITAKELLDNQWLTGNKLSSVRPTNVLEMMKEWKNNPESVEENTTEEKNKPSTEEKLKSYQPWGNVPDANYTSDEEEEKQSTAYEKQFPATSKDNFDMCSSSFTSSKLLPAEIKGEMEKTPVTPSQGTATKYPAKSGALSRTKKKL

Haspin(h) = target: T2, Haspin(h) (Homo sapiens, UniProt Q8TF76)
T2 sequence (Q8TF76 1-798): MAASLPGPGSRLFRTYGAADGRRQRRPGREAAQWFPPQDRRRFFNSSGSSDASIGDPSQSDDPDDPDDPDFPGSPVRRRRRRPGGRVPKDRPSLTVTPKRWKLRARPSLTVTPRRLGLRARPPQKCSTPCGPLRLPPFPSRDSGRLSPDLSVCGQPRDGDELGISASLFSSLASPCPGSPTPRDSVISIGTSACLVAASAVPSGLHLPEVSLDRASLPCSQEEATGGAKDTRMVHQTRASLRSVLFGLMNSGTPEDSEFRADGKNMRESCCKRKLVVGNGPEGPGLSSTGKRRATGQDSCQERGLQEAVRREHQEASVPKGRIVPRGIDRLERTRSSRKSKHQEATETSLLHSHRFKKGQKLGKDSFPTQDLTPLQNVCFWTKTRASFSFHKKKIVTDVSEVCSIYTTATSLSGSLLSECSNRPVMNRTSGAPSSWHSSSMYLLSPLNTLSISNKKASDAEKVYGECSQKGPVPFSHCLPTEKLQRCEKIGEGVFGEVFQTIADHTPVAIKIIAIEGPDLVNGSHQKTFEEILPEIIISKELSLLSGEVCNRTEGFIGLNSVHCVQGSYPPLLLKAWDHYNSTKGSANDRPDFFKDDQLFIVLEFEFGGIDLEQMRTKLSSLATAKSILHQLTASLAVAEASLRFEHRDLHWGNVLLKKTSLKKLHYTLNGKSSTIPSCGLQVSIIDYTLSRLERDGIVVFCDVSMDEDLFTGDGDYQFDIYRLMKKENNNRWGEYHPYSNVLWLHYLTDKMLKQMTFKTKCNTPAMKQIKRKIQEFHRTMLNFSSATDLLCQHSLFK

GCK(h) = target: T3, GCK(h) (Homo sapiens, UniProt Q12851)
T3 sequence (Q12851 1-820): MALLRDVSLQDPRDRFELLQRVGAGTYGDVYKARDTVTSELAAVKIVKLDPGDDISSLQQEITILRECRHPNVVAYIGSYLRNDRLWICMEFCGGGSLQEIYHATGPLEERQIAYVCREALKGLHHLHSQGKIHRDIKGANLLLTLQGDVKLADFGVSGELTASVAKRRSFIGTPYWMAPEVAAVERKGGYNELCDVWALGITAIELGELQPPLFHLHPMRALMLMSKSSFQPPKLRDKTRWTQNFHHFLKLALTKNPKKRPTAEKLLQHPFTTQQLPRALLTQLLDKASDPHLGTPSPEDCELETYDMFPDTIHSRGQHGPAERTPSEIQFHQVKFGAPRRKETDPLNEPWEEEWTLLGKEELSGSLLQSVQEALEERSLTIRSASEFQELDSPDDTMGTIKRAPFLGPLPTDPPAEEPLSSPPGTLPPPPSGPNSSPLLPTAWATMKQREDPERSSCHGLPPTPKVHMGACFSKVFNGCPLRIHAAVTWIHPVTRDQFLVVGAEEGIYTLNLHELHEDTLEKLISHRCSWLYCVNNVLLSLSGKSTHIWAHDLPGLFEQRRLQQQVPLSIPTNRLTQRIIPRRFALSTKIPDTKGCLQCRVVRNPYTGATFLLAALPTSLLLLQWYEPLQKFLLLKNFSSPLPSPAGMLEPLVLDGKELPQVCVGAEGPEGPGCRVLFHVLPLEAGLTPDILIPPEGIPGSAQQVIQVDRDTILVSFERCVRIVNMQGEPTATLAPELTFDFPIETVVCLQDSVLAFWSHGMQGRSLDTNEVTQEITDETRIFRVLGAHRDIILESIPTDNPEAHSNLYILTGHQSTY

EphA4(h) = EphA4(h) (Homo sapiens, UniProt P54764)
Sequence of EphA4(h) (P54764 20-986): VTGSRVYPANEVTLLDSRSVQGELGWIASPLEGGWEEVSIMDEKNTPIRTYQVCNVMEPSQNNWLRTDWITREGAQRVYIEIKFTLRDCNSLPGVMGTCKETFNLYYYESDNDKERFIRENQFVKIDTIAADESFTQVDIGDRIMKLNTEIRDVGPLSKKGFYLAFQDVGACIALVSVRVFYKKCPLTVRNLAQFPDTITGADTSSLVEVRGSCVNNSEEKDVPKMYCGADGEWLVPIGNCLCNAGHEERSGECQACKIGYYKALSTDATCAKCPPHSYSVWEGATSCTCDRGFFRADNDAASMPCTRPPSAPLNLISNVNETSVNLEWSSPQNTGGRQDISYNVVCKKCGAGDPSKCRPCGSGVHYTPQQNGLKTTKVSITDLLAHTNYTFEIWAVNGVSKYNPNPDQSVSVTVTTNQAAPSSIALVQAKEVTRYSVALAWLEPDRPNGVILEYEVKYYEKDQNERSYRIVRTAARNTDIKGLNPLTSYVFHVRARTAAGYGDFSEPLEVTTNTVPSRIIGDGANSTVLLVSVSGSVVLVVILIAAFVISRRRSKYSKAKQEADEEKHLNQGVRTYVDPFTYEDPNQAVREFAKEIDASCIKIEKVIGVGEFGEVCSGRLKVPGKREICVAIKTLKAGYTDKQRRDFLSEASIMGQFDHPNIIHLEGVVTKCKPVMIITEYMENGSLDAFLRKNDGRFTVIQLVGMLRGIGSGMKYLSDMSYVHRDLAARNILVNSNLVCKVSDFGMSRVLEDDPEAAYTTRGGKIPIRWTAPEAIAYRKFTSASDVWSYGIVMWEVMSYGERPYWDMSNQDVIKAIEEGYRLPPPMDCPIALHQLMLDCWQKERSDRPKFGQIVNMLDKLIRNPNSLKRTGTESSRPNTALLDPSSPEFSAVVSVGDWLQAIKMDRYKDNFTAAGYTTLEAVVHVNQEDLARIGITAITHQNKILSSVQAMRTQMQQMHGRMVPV

Tie2(h) = Tie2(h) (Homo sapiens, UniProt Q02763)
Sequence of Tie2(h) (Q02763 23-1124): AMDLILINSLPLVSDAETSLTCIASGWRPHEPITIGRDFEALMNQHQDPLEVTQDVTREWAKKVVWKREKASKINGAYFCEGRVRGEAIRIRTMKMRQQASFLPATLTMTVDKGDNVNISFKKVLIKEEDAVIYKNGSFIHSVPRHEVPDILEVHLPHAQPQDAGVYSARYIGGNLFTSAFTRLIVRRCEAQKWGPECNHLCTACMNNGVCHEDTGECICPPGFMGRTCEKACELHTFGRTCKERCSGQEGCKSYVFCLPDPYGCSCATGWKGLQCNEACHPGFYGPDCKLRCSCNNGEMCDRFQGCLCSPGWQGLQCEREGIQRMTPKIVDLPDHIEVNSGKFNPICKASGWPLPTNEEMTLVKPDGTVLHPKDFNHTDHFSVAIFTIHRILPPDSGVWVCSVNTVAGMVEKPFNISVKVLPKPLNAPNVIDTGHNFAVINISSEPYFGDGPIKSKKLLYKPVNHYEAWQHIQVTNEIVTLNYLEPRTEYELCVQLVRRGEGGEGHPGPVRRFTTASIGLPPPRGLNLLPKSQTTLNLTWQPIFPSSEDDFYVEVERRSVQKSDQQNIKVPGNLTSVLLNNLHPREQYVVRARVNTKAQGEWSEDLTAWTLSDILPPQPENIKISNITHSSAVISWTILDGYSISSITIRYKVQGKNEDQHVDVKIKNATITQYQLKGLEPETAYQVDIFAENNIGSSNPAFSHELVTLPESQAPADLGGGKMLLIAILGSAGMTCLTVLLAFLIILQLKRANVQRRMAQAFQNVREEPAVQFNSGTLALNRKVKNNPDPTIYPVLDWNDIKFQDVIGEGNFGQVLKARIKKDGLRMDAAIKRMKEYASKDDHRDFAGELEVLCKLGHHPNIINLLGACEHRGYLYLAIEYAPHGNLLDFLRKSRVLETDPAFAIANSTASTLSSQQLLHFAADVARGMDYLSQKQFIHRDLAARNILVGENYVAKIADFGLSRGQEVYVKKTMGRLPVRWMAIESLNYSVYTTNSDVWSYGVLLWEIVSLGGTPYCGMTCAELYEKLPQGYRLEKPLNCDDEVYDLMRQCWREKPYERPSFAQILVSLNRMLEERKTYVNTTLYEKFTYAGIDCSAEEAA

Substance: HRRIKAWLKKIKALARQLGVAA (Mammalian) [MMI-0500]
- % activity (ULK2(h)): 124%
- % activity (PRK2(h)): 7%
- % activity (ErbB4(h)): 2%
- % activity (STK33(h)): 16%
- % activity (Haspin(h)): 25%
- % activity (GCK(h)): 30%
- % activity (EphA4(h)): 48%
- % activity (Tie2(h)): 22%

Substance: YARAAARQARAKALNRQLGVA (Mammalian) [MMI-0200]
- % activity (ULK2(h)): 132%
- % activity (PRK2(h)): 74%
- % activity (ErbB4(h)): 82%
- % activity (STK33(h)): 98%
- % activity (Haspin(h)): 71%
- % activity (GCK(h)): 99%
- % activity (EphA4(h)): 127%
- % activity (Tie2(h)): 53%

Substance: H-YARAAARQARAKALARQLGVAA-OH [MMI-0100]
- activity at 100 µM (ULK2(h)): 123%
- activity at 100 µM (PRK2(h)): 72%
- activity at 100 µM (ErbB4(h)): 73%
- activity at 100 µM (STK33(h)): 99%
- activity at 100 µM (Haspin(h)): 127%
- activity at 100 µM (GCK(h)): 98%
- activity at 100 µM (EphA4(h)): 110%
- activity at 100 µM (Tie2(h)): 28%
